From the nanobody polyreactivity screen of Harvey et al. (2022)

experiment: yeast display, Sf9 membrane polyspecificity reagent, FACS + sequencing; frameworks hold sequencing errors
Method in brief: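 Nanobodies came from a synthetic yeast display library in Saccharomyces cerevisiae BJ5465, induced with galactose for 36–48 hours and stained for 1 hour at 4 °C with 10% biotinylated, detergent-solubilized Sf9 membrane reagent. Cells were enriched on streptavidin microbeads and then FACS-sorted, with low and high (top ~1%) gates set on anti-HA fluorescence for expression and streptavidin fluorescence for reagent binding. Each polyreactivity label reflects the gate a clone came from. Genes were amplified by colony PCR, sequenced by MiSeq 2 × 250 and filtered by CDR length.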

Question: Which “polyreactivity (PSR sort gate)” value does the source give for “QVKLVESGGGLVQAGGSLRLSCAASGSTFVGYAMGWYRQAHGKERELVAAINDSGGSTYYADSVKGRFTISRDNAKNTVYLQMNSLKPEDTAVYYCAADSSGTSWYTFDYWGQGTQVTVSS” here?
Answer: low polyreactivity

Question: For “QVQLVESGGGLVQAGGSLRLSCAASGSIFGVNAMGWYRQAPGKERELVASISLSDDRTYYADSVKGRFTISRDNAKNTVYLQMNSLKPEDTAVYYCARRILWYWDVYPSLAEYDYWGQGTQVTVSS”, which “polyreactivity (PSR sort gate)” value is on record?
Answer: low polyreactivity

Question: Which “polyreactivity (PSR sort gate)” value does the source give for “QVQLVESGGGLVQAGGSLRLSCAASGRIFEGYAMGWYRQAPGKERELVAAITGSGGGTYYADSVKGRFTISRDNAKNTVYLQMNSLKPEDTAVYYCATAYSAYQHPYGYWGQGTQVTVSS” here?
Answer: low polyreactivity

Question: With “QVQLVESGGGLVQAGGSLRLSCAASGITFYVYAMGWYIPAPGKERELVAAINYDSGSTYYADSVKGRFTISRDNAKNTVYLQMNSLKPEDTAVYYCATDGVNPFYAYDYWGQGTQVTVSS” as the sequence, how does the “polyreactivity (PSR sort gate)” value read?
Answer: low polyreactivity

Question: Which “polyreactivity (PSR sort gate)” value does the source give for “QVQLEESGGGLVQAGGSLRLSCAASGSIFLANAMGWYRQAPGKERELVATISSGGSTYYADSVKGRFTISRDNAKNTVYLQMNSLKPEDTAVYYCAKRRAYTKKLYYWGQGTQVTVSS” here?
Answer: high polyreactivity

Question: Which “polyreactivity (PSR sort gate)” value does the source give for “QVQRVESGGGLVQAGGSLRLSCAASGRIFSWYTMGWYRQAPGKERELVAVITSGGTTKYADSVKGRFTISRDNAKNTVYLQMNSLKPEDTAVYYCNVAGRDYAVRWGSFDYWGQGTQVTVSS” here?
Answer: low polyreactivity

Question: With “QVQLVESGGGLVQAGGSLRLSCAASGFTFWRYALGWYRQAPGKETEFVASITWSGGSTYYADSVKGRFTISRDNAKNTVYLQMNRLQPEDTAVYYCAAVARTSGIKYYYWGQGTQVTVSS” as the sequence, how does the “polyreactivity (PSR sort gate)” value read?
Answer: high polyreactivity

Question: With “QVQLVESGGGLVQAGGSLRLSCAASGRIFAYYAMGWYRQAPGKERELVAAISGGGGSTYYADSVKGRFTISRDNAKNTVYLQMNSLKPEDTAVYYCAARYTVYSATGRYYYWGQGTQVTVSS” as the sequence, how does the “polyreactivity (PSR sort gate)” value read?
Answer: high polyreactivity

Question: For “QVQRVESGGGLVQAGGSLRLSCAASGSIFLSYDMGWYRQAPGKERELVAAITQSGGSTYYADSVKGRFTISRDNAKNTVYLQMNSLKPQDTAVYSCAVRVSGPRGYDYEYWGQGTQVTVSS”, which “polyreactivity (PSR sort gate)” value is on record?
Answer: low polyreactivity

Question: Which “polyreactivity (PSR sort gate)” value does the source give for “QVQLVESGGGLVQAGGSLRLTCAASGSIFALYAMGWYRQAPGKERELVAANADSVKGRFTISRDNAKNTVYLQMNSLKPEETAVYYCAKDITGGSGLGSWIYSEYDYWGQGTQVTVSS” here?
Answer: low polyreactivity

Question: With “QVQLVESGGGLVQAGGSLRLSCAASGFTFKTNARGWYRQAPVTERELVAAITGSGSSTYYADSVKGRFTISRDNAKNTVYLQMNSLKPEDTAVYYCAASRVYKYYWGQGTEVTVSS” as the sequence, how does the “polyreactivity (PSR sort gate)” value read?
Answer: high polyreactivity

Question: For “QVQLVESGGGLVQAGGSLRLSCAASGRTFYRYAMGWYRQAPGKEREFVAAISNGGSNTRYADSVKGRFTISRDNAKNTVYLQMNSLKPEDTAVYYCAARAYQHYNWGQGTQVTVSS”, which “polyreactivity (PSR sort gate)” value is on record?
Answer: high polyreactivity

Question: With “QVKLVESGGGLDQAGGSLRLSCAASGRTFGSYTMGWYRQAPGKERELVAAITSGGRTNYADSVKGRFTISRDNAKNTVYLQMNSLKPEDTAVYYCAAGWRGGRYRYFAYDYWGQGTQVTVSS” as the sequence, how does the “polyreactivity (PSR sort gate)” value read?
Answer: high polyreactivity

Question: For “QVQLVESGGGLVQAGGSLRLSCAASGITFSSYAMGWYRQAPGKERELVAAISYGGGNTYYADSVKGRFTISRDNAKNTVYLQMNSLKPEDTAVYYCNTLYTSYSGLDYWGQGTQVTVSS”, which “polyreactivity (PSR sort gate)” value is on record?
Answer: high polyreactivity

Question: For “QVQLVESGGGLVQAGGSLRLSCAASGFIFYRYSMGWYRQAPGIERELVAAIRSSGGSTYYADSVKGRFSISRDNAKNTVYRHMNSLKPQDTAVYYCAKCFSSVLWNGIWPYDYWGQGTQVTVSS”, which “polyreactivity (PSR sort gate)” value is on record?
Answer: low polyreactivity

Question: Which “polyreactivity (PSR sort gate)” value does the source give for “QGQRVESGGGLVQAGGSLRLSCAASGRIFTQYAMGWYRQAPGKARELVAASNASDGSTYADSVKGRFTISRDNAKNTVYIQINSLKPEDTAVYYCNVTGGPYDFTRWSEFDHWGQGTHVTVSS” here?
Answer: low polyreactivity

Question: For “QVQLVESGGGLVQAGGSLRLSCAASGSTFGRYAMGWYRQAPGKERELVAAITSGSSTNYADSVKGRFTISRDNAKNTVYLPMNSLKPEDTAVYYCAAPKSRQSTYYYWGQGTQVTVSS”, which “polyreactivity (PSR sort gate)” value is on record?
Answer: high polyreactivity

Question: With “HVQLVESGGGLVQAGGSLRLSCAASGFTFDAYAMGWYRQAPGKERELVAAISFSGGSTYYADSVKGRFTISRDNAKNTVYLQMNSLKPEDTAVYYCAAYSYTRTYGRHNYWGQGTQVTVSS” as the sequence, how does the “polyreactivity (PSR sort gate)” value read?
Answer: high polyreactivity

Question: Which “polyreactivity (PSR sort gate)” value does the source give for “QVQLLESGGGLVPAGGSLRLSWAASGSTLYDYTMGWYRQAPGKERELVAAIRVSGARTFYADSVKGRFTISRDNAKNTVYLQRNSLKPEDTAVYYCAARWYIANPLSPSDYWGQGTQVTVSS” here?
Answer: low polyreactivity

Question: Which “polyreactivity (PSR sort gate)” value does the source give for “QVQLVESGGGLVQAGGSPRLSCAASGRIFHPYAMGWYRQAPGKERELVATISWSGGSTTYADSVKGRFTISRDNAKNTVYLQMNSLKPEDTAVYYCNADYWWSYVRFDYWGQGTQVTVSS” here?
Answer: low polyreactivity

Question: For “QVQLVESGGGLVQAGGSLRLSCAASGSTFWAYVMGWYRQAPGKESELVAAISKSGVRTHYADSVKGRFTISRDNAKNTVYLQMNSLKPEDTAVYYCAAEWSWGPYRFDYWGQGTQVTVSS”, which “polyreactivity (PSR sort gate)” value is on record?
Answer: high polyreactivity

Question: Which “polyreactivity (PSR sort gate)” value does the source give for “QVQLVESGGGLVQAGGSLRLSCAASGRTFVRYAMGWYRQAPGKERELVAAISRTGGTTYYADSVKGRFTISRDNAKNTVYLQMNSLKPEDTAVYYCNADPFYKYGYWGQGTKVTVSS” here?
Answer: high polyreactivity

Question: Which “polyreactivity (PSR sort gate)” value does the source give for “QVQLVESGGGLVQAGGSLRLSCAASGRIFGVYAMGWYRQAPGKERELVAAISEGGGSTNYADSVKGRFTISRDNAKNTVYLQMNSLKPEDTAGYYCAATYRTGVRRYYSWGQGTQVTVSS” here?
Answer: low polyreactivity

Question: With “QVQLVESGGGLVQAGGSLRLSCAASGRTFKKYAMGWYRQAPGKERELVAAITSRGGSTYYADSVKGRFTISRDNAKNTVYLQMNSLKPEDTAVYYCNAVRGWLYVFSYPYWDDEYWGQGTQVTVSS” as the sequence, how does the “polyreactivity (PSR sort gate)” value read?
Answer: high polyreactivity

Question: For “QVQLVESGGGLVQAGGSLRLSCAASGFTFGWYTMGWYRPAPGKERELVAAISLNGGSTYYADSVKGRFTISRDNAKNTVYLQMNSLKPEDTAVYYCAIGYRWPYYPYDYWGQGTQVTVSS”, which “polyreactivity (PSR sort gate)” value is on record?
Answer: low polyreactivity

Question: With “QVQLVESGGGLVQAGGSLRLSCAASGSNFYPYAMGWYRQAPGKERELVAAITGTGGSTYYADSVKGRFTISRDNAKNTVYLQMNSLKPEDTAVYYCATRRRYYYSRYNYWGQGTQVTVSS” as the sequence, how does the “polyreactivity (PSR sort gate)” value read?
Answer: high polyreactivity

Question: Which “polyreactivity (PSR sort gate)” value does the source give for “QVQLVESGGGLVQAGGSLRLSCAASGSTFRTNGMGWYRQAPGKESELVAAITRGTSTNYADSVKGRFTISRDNAKNTVYLQMNSLKPEDTAVYYCAADGPDRYHYTTTRYRYDYWGQGTQVTVSS” here?
Answer: low polyreactivity

Question: With “QVQLVESGGGLVQAGGSLRLSCAASGFTFDSYAMGWYRQAPGKERELVAAMSYRGGTTYYADSVKGRFTISRDNAKNTGYLQMNSLKPEDTAVYYCNRLWKYGYNYWGQGTQVTVSS” as the sequence, how does the “polyreactivity (PSR sort gate)” value read?
Answer: high polyreactivity

Question: For “QVQLVESGGGLVQAGGSLRISCAASGRIFARNAMGSYRQAPGKERELVATIRVGGGSTYYADSVTGRFTISRDNAKNTVYLQMNSLKPEDTSVYYCAVRQLYSYPGDRRGYYWGQGTQVTVSS”, which “polyreactivity (PSR sort gate)” value is on record?
Answer: low polyreactivity

Question: For “QVQLVESGGGLVQAGGSLRLSCAASGSIFRRNSMGWYRQAPGKERELVAAITRRGGSTYYADSVKGRFTISRDNAKNTVYLQMNSLKPEDTAVYYCAADPPDGFYYTWDYDYWGQGTQVTVSS”, which “polyreactivity (PSR sort gate)” value is on record?
Answer: low polyreactivity

Question: With “QVQLVESGGGLVQAGGSLRLSCAASGRTFARYAMGWYRQAPGKERELVARISSGGSTYYADSVKGRFTISRDNAKNTVYLQMNSLKPEDTAVYYCAASGWRYRYDYWGQGTQVTVSS” as the sequence, how does the “polyreactivity (PSR sort gate)” value read?
Answer: high polyreactivity

Question: For “QVQLVESGGGLVQAGGSLRLSCAASGYIFYAYAMGWSRQAPGKERELVAAISSGGGRTYYADSVKGRFTISRDNAKNTVYLQMNSLKPEDTAVYYCAARRRDRGEYYYWGQGTQVTVSS”, which “polyreactivity (PSR sort gate)” value is on record?
Answer: high polyreactivity

Question: For “QVQLVESGGGLVQAGGSLRLSCAASGSTFTTNAMGWSRQAPGNERELVATISGGGSTYYADSVKGRFTISRDNAKNTVYLQMNSLKPEDTAVYDCATDVQVPGIGRSVYAYEYWGQGTQVTVSS”, which “polyreactivity (PSR sort gate)” value is on record?
Answer: low polyreactivity

Question: Which “polyreactivity (PSR sort gate)” value does the source give for “QVQLVESGGGLVQAGGSLRLSCAASGRTLLYYAMGWYRQAPGKERELVASISRGSSTNYADSVKGRFTISRDNAKNTVYLQMNSLKPEDTAVYWGQGTQVTVSS” here?
Answer: low polyreactivity

Question: Which “polyreactivity (PSR sort gate)” value does the source give for “QVQLVESGGGLVQSGGSLRLSCAASGSTFNGYAMGWYRQAPGKERELVAGITGSGGSTYYADSVKGRFTISRDNAKNTVYLQMNSLKPEDTAVYYCKAVHWGGSYWGLDYWGQGTQVTVSS” here?
Answer: low polyreactivity

Question: With “QVQLVESGGGLVQAGGSLRLSCAASGRTFNGYAMGWYRQAPGKERELVASISRDGSTNYADSVKGRFTISRDNAKNTVYLQMNSLKPEDTAVYYCAADIWYYRYPIYYYSYDYWGQGTQVTVSS” as the sequence, how does the “polyreactivity (PSR sort gate)” value read?
Answer: low polyreactivity

Question: For “QVQLVESGGGLVQAGGSLRLSCAASGRTFGYNAMGWYRQAPGKESEFVAAISWSGGRTYYADSVKGRFTISRDNAKNTVYLQMNSLKPEDTAVYYCAAGFGDGPGNGYYTRYSWDDDYWGQGTQVTVSS”, which “polyreactivity (PSR sort gate)” value is on record?
Answer: low polyreactivity

Question: For “QVQLVESGGGLVQAGGSLRLSCAASGRTFEWYALGWYRQAPGKERELVAAIRSGGGTNYADSVKGRFTISPDNAKNTVYLQMNSLKPEDTAVYYCAKEWAGGLYDYWGQGTQVTVTS”, which “polyreactivity (PSR sort gate)” value is on record?
Answer: low polyreactivity

Question: Which “polyreactivity (PSR sort gate)” value does the source give for “QVQHVESGGGLVQAGGSLRLSCAASGRTFVRYAMGWSRPAPGKERELVAAISRSGVGTYYADSVKGRFTISRDNAKKTVYLQMNSLKPEDTAVYYCNALPGTQYNYWGQGTQVTVSS” here?
Answer: high polyreactivity

Question: With “QVQLVESGGGLVQAGGSLRLSCAASGSIFNSNVMGWYRQAPGKERELVAAISTSGGSTHYADSVKGRFTISRDNAKNTVYLQMNSLKPEDTAVYYCAARVSSYSQLYYYWGQGTQVTVSS” as the sequence, how does the “polyreactivity (PSR sort gate)” value read?
Answer: high polyreactivity

Question: For “QVQRVESGGGLVQAGGSLGLSCAATGSTFTVYAMGWYRQATGTERELVASITFTGGSTYYADSVKGRFTISRDNAKNTVYLQMISLKPEVTEVYYCAAYGWRVHDRWFFERDYWGQGTQVTVSS”, which “polyreactivity (PSR sort gate)” value is on record?
Answer: high polyreactivity

Question: With “QVQLVESGGGLVQAGGSLRLSCAASGRIFSVYALGWYRQAPGKERELVAAISSGDSTYYADSVKGRFTISRDNAKNTVYLQMNSLKPDDTAVFYCAATFPFHDGDYWGQGTQVTVSS” as the sequence, how does the “polyreactivity (PSR sort gate)” value read?
Answer: low polyreactivity

Question: With “QVQLVESGGGLVQAGGSLRLSCAASGRTFYYYAMVWYRQAPGKERELVAAINSGGSTNYADSVKGRFTISRDNAKNTVYLQMNSLKPEDTAVYYCAKRAYTTVYGPVNYGFNYWGQGTQVTVSS” as the sequence, how does the “polyreactivity (PSR sort gate)” value read?
Answer: low polyreactivity
